Measured values: patent US20060234293A1, “Polypeptide methods and means” (priority 2002, published 2006)

Biological target: T1, Biotinylated BRC Repeat 4 peptide (Bio-BRC4) (Homo sapiens, UniProt P51587)
T1 construct: host or cells: chemical synthesis for the peptide; E. coli BL21 Codon Plus for RAD51 F86E
Test: SPR binding assay of RAD51 F86E on BRC4 coupled-chip
Conditions: 5 μM in HBSEP, 60 seconds contact time; FIG. 9(a)
Description: Measurements were performed on the BIACORE X biosensor (BIACORE AB, Uppsala, Sweden). A continuous flow of de-gassed and 0.22 μm filtered HBSEP running buffer was employed at a constant temperature of 25° C.
Flow cells 1 and 2 of a pre-coated streptavidin Sensor chip SA were conditioned with three sequential 20 μl injections of 1 M NaCl, 50 mM NaOH at a flow rate of 20 μl/min.
Biotinylated BRC Repeat 4 peptide (Bio-BRC4) was immobilized to a level of 200 RU by affinity capture onto Flow cell 2 only. This was achieved by two 20 μl injections of 10 nM Bio-BRC4 in HBS-EP at a flow rate of 20 μl/min. Flow cell 1 represented a reference surface to correct for any refractive index variations and thus was not derivated. Flow cells 1 and 2 were both subsequently treated with three successive injections of 40 μl regeneration solution (10 mM Glycine pH 2.5) at a flow rate of 40 μl/min to ensure baseline stabilization.
The […] mutant RAD51 Phe86Glu (F86E) or Ala89Glu (A89E) protein in solution can then be run over the BRC repeat coupled-chip in a Biacore instrument (Biacore AB, Uppsala, Sweden) or other suitable measuring device for surface-plasmon resonance. Reference corrected data was analysed using BIAevalution software (3.2V) and sensorgrams plotted. […]

T1 sequence (P51587 1517-1551 limits assumed): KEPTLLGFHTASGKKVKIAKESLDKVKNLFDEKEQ
T1 sequence (Q06609 whole entry F86E partner): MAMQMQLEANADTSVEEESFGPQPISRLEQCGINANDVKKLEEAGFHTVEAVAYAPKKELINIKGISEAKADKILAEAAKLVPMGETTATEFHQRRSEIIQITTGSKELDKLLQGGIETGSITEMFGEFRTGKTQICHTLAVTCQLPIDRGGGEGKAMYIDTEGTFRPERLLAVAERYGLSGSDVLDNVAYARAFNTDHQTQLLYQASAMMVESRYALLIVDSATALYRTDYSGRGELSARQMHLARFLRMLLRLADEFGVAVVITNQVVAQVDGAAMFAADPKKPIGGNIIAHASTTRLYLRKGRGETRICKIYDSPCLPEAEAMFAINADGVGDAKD

B1: RAD51 F86E: non-oligomerising mutant RAD51 with Phe86 replaced by glutamic acid (protein, UniProt Q06609 2-339, looked up, variant F86E)
DNA repair protein RAD51 …: AMQMQLEANADTSVEEESFGPQPISRLEQCGINANDVKKLEEAGFHTVEAVAYAPKKELINIKGISEAKADKILAEAAKLVPMGETTATEFHQRRSEIIQITTGSKELDKLLQGGIETGSITEMFGEFRTGKTQICHTLAVTCQLPIDRGGGEGKAMYIDTEGTFRPERLLAVAERYGLSGSDVLDNVAYARAFNTDHQTQLLYQASAMMVESRYALLIVDSATALYRTDYSGRGELSARQMHLARFLRMLLRLADEFGVAVVITNQVVAQVDGAAMFAADPKKPIGGNIIAHASTTRLYLRKGRGETRICKIYDSPCLPEAEAMFAINADGVGDAKD
- binding to the BRC4 coupled-chip: binding can easily be detected
